The record followed here is patent US20100239570A1 (published 2010).

Where no end group is shown, it is not given here.

Sequences and labels used below:
B1: antibody NI-103 (antibody, V domains shown)
VH: EVQLHQSGPELVKPGASVKISCKTSGYTFTEYTMHWVKQSHGKSLEWIGGVNPYNDNTSYIRKLQGKVTLTVDRSSSTAYMELRSLTSEDSAVYFCARYGGLRPYYFPMDFWGQGTSVTVSS
VL: QVVLSQSPAILSASPGERVTLTCRASSSVNYMHWYQQKPGSSPKAWIYATSNLASGVPDRFSASGSGTSYSLTISRVEAEDAATYYCQQWRTNPPTFGAGTKLELKR
notes: detected in ELISA with anti-mouse IgG; treated as the same molecule
B2: Abeta29-40 fragment (peptide)
peptide: GAIIGLMVGGVV
modifications: not fully specified

One experiment addresses T1, Abeta1-28 (UniProt P05067 672-699).
T1 construct: range 1-28; Range is counted on the Abeta peptide
Briefly: ELISA, peptide coated at 1 ug/ml. How it is done:
(§1) 96 well half area Microplates (Corning) were coated with synthetic Abeta-peptide preparations at a standard concentration of 1 μg/ml in coating buffer (15 mM Na₂CO₃, 35 mM NaHCO₃, pH 9.42) overnight at 4° C. Plates were washed and non-specific binding sites were blocked for 1 h at RT with PBS containing 2% BSA (Sigma, Buchs, Switzerland).
A general note: ELISA stands for enzyme-linked immunosorbent assay.

For the next experiment, the target named is T2, Abeta1-38 (UniProt P05067 672-709).
T2 construct: range 1-38; Range is counted on the Abeta peptide; also called Abeta fragment consisting of amino acids 1-38
Put plainly: ELISA, peptide coated at 1 ug/ml. On the procedure: as §1

For the experiment “Abeta29-40 fragment”, the target named is B2. Put plainly: ELISA, peptide coated at 1 ug/ml. How it is done: as §1
The target in another experiment is T3, Abeta17-28 (UniProt P05067 688-699).
T3 construct: range 17-28; Range is counted on the Abeta peptide
T3 peptide (looked up): LVFFAEDVGSNK
Put plainly: ELISA, peptide coated at 1 ug/ml. How it is done: as §1

A further experiment deals with T4, Abeta1-11 (UniProt P05067 672-682).
T4 construct: range 1-11; Range is counted on the Abeta peptide
T4 peptide (looked up): DAEFRHDSGYE
Put plainly: ELISA, peptide coated at 1 ug/ml. How it is done: as §1

Experiment [1] addresses T5, peptide consisting of amino acids 22-35 of Abeta (UniProt P05067 693-706).
T5 construct: range 22-35; Range is counted on the Abeta peptide; also called Abeta22-35
T5 peptide (looked up): EDVGSNKGAIIGLM
Put plainly: ELISA, peptide coated at 1 ug/ml. How it is done: as §1

Experiment [2] has as its target T6, human wild type APP fused at the intracellular C-terminus to the yellow fluorescent protein variant Citrine, … (human, UniProt P05067 18-770).
T6 construct: whole, on cells; also called cellular full-length APP; cell-surface APP; not shown: yellow fluorescent protein variant Citrine at the intracellular C-terminus
Briefly: immunofluorescence on live HEK 293 cells expressing human APP-Citrine, 30 min at 4 C. On the procedure:
HEK 293 cells were transiently transfected with a vector that expresses human wild type APP fused at the intracellular C-terminus to the yellow fluorescent protein variant Citrine. 24 hours after transfection the cells were incubated with human recombinant antibodies or control antibodies at 4° C. for 30 minutes. After a washing step the cell were fixed and surface-bound antibody was detected using Cy-3-labeled secondary antibodies to human or mouse IgG (Jackson ImmunoResearch). Analysis of fluorescence was performed on a confocal microscope (Leica).
Citrin-positive signals indicate APP-expressing cells.

The experiment “antibody NI-103” addresses B1. Briefly: competition ELISA, peptide at 1 µM in solution against coated Abeta1-42. How it is done: as §1

With B1, the binding result with Abeta1-28 is “no binding”; in the experiment with Abeta1-38, “no binding”; with Abeta29-40 fragment, “binds”; with Abeta17-28 it was “no binding”; with Abeta1-11 it was “no binding”; in experiment [1], “no binding”. Further, the binding result in experiment [2] is “no binding”.
Take B2: the binding result with antibody NI-103 was “binds”.
